Data from patent US8497072.

Experiments:
Aβ(1-40) monomer (human) = experiment: dot blot, 10 pmol antigen on nitrocellulose, 0.2 µg/ml antibody, densitometry
[1] = biological target: Aβ1-42 monomer (dot blot) (human); experiment: as above
[2] = biological target: endogenous Aβ(1-42) in human CSF (human); experiment: IP from CSF of AD patients (n=2), ratio of recovered Aβ42 to Aβ40
[3] = biological target: endogenous Aβ(1-42) in human CSF (human); experiment: IP from CSF of MCI patients (n=4), ratio of recovered Aβ42 to Aβ40
[4] = biological target: endogenous Aβ(1-42) in human CSF (human); experiment: IP from AD patient CSF, urea-PAGE Western blot, share of Aβ42 in recovered Aβ40+42
[5] = biological target: endogenous Aβ(1-40) in human CSF (human); experiment: IP from CSF of AD patients (n=2) with antibody-Sepharose, Aβ40 sandwich ELISA of eluate
Chain of endogenous Aβ(1-40) in human CSF (human) (peptide, as listed by the source): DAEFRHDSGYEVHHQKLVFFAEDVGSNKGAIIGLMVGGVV

[6] = biological target: endogenous Aβ(1-42) in human CSF (human); experiment: IP from CSF of AD patients (n=2) with antibody-Sepharose, Aβ42 sandwich ELISA of eluate
[7] = biological target: endogenous Aβ(1-40) in human CSF (human); experiment: IP from CSF of MCI patients (n=4) with antibody-Sepharose, Aβ40 sandwich ELISA of eluate
[8] = biological target: endogenous Aβ(1-42) in human CSF (human); experiment: IP from CSF of MCI patients (n=4) with antibody-Sepharose, Aβ42 sandwich ELISA of eluate
Aβ(1-42) fibrils (human) = Aβ(1-42) fibrils (human) (UniProt P05067); experiment: co-sedimentation with Aβ(1-42) fibrils, SDS-PAGE, densitometry of heavy chain in pellet and supernatant
Chain of Aβ(1-42) fibrils (human) (P05067 672-713 limits assumed): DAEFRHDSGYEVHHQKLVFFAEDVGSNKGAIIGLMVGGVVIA

[9] = biological target: endogenous Aβ(1-40) in human CSF (human); experiment: IP from AD patient CSF with antibody on anti-mouse IgG Dynabeads, 8 M urea-PAGE and Western blot (82E1)
[10] = biological target: endogenous Aβ(1-42) in human CSF (human); experiment: as above

Chain of endogenous Aβ(1-42) in human CSF (human) (peptide, as listed by the source): as the sequence (P05067 672-713 limits assumed) above
Chain of Aβ1-42 monomer (dot blot) (human) (peptide, as listed by the source): as the sequence (P05067 672-713 limits assumed) above

Row | Reflective Density (RD) [10 pmol] (Aβ(1-40) monomer (human)) | Reflective Density (RD) [10 pmol] [1] | Aβ42/40 [2] | Aβ42/40 [3] | Ratio Aβ42/Aβ40+42 × 100% [4] | Aβ(1-40) recovered after immunoprecipitation [5] | Aβ(1-42) recovered after immunoprecipitation [6] | Aβ(1-40) recovered after immunoprecipitation [7] | Aβ(1-42) recovered after immunoprecipitation [8] | Fibril bound Ab fraction (Aβ(1-42) fibrils (human)) | Aβ40 urea-PAGE after immunoprecipitation [9] | Aβ42 urea-PAGE after immunoprecipitation [10] | Substance
1 | 0.7 RD | 3.1 RD | – | – | – | – | – | – | – | – | – | – | mMAb 4G8 (Signet Inc. Cat# 9220) (antibody)
2 | – | – | 20.6% | 17.4% | 4.4% | 5610 | 1450 | 8280 | 2040 | 98% | 4390 pg/mL | 202 pg/mL | mMAb 6E10 (Signet Inc. Cat.# 9320) (antibody)
